Assay results published in publication PMC12023411, “Quaternary stabilization of a GH2 β‐galactosidase from the psychrophile A. ikkensis, a flexible and unstable dimeric enzyme” (Protein Science : A Publication of the Protein Society, 2025).
Values joined by “and” are separate entries in the source; they are usually repeats but may differ in a detail not shown here. Identical values can stand only once.

Columns and labels:
EcLac = biological target: T1, EcLac (Escherichia coli, UniProt P00722); experiment: ONPG hydrolysis, absorbance […] nm; assay type: biochemical; conditions: PBS pH 7.0, 0.1 mM MgCl2, 5 mM ONPG, 8 nM enzyme; temperature series
T1 construct: gene lacZ; commercial enzyme purchased from Sigma, lyophilized; homotetramer

[1] = biological target: AiLac triple mutant (V648E, F702L, T742V) (Alkalilactibacillus ikkensis); experiment: mass photometry; TwoMP mass photometer, 21°C; 0.25 μL of a 1 mg/mL (8.4 μM) stock added to 19.75 μL buffer, about 100 nM final
[2] = biological target: AiLac triple mutant (V648E, F702L, T742V) (Alkalilactibacillus ikkensis); experiment: flow-induced dispersion analysis (FIDA); 125 nM (WT) or 60 nM (TM) Alexa Fluor 488-labelled protein as indicator, pre-mixed with unlabelled protein of the same kind, 4 h at 4°C, buffer A; Rh fitted to a monomer-dimer model; constant of dimer to monomers
[3] = biological target: GH2 β-galactosidase from Alkalilactibacillus ikkensis (AiLac), wild type (Alkalilactibacillus ikkensis); experiment: as above
[4] = biological target: GH2 β-galactosidase from Alkalilactibacillus ikkensis (AiLac), wild type (Alkalilactibacillus ikkensis); experiment: SAXS; second peak of the SEC purification, 1.15 mg/mL, buffer A, 20°C, 1800 s; mass from I(0)
[5] = biological target: GH2 β-galactosidase from Alkalilactibacillus ikkensis (AiLac), wild type (Alkalilactibacillus ikkensis); experiment: flow-induced dispersion analysis (FIDA); 125 nM (WT) or 60 nM (TM) Alexa Fluor 488-labelled protein as indicator, pre-mixed with unlabelled protein of the same kind, 4 h at 4°C, buffer A; Rh fitted to a monomer-dimer model; constant of dimer to monomers; remark: listed apart in the source
[6] = biological target: GH2 β-galactosidase from Alkalilactibacillus ikkensis (AiLac), wild type (Alkalilactibacillus ikkensis); experiment: DSF (melting temperature against protein concentration); apparent; SEC-purified AiLac at 3.9 μg/mL to 4 mg/mL, 0.5°C/min, buffer A; tm fitted to the monomer-dimer equation (5); dimer to monomers
[7] = biological target: GH2 β-galactosidase from Alkalilactibacillus ikkensis (AiLac), wild type (Alkalilactibacillus ikkensis); experiment: SAXS; 0.40 mg/mL AiLac in 50 mM bis-tris propane, pH 7.0-8.0, 20°C; mass from I(0)
[8] = biological target: GH2 β-galactosidase from Alkalilactibacillus ikkensis (AiLac), wild type (Alkalilactibacillus ikkensis); experiment: SEC-MALS; Superdex 200 10/300 GL Increase, buffer A (PBS + 0.1 mM MgCl2, pH 7.0), room temperature, 0.5 mL/min, 50 μL of 1.5 mg/mL Ni-NTA purified protein loaded

T1 sequence (P00722 whole entry): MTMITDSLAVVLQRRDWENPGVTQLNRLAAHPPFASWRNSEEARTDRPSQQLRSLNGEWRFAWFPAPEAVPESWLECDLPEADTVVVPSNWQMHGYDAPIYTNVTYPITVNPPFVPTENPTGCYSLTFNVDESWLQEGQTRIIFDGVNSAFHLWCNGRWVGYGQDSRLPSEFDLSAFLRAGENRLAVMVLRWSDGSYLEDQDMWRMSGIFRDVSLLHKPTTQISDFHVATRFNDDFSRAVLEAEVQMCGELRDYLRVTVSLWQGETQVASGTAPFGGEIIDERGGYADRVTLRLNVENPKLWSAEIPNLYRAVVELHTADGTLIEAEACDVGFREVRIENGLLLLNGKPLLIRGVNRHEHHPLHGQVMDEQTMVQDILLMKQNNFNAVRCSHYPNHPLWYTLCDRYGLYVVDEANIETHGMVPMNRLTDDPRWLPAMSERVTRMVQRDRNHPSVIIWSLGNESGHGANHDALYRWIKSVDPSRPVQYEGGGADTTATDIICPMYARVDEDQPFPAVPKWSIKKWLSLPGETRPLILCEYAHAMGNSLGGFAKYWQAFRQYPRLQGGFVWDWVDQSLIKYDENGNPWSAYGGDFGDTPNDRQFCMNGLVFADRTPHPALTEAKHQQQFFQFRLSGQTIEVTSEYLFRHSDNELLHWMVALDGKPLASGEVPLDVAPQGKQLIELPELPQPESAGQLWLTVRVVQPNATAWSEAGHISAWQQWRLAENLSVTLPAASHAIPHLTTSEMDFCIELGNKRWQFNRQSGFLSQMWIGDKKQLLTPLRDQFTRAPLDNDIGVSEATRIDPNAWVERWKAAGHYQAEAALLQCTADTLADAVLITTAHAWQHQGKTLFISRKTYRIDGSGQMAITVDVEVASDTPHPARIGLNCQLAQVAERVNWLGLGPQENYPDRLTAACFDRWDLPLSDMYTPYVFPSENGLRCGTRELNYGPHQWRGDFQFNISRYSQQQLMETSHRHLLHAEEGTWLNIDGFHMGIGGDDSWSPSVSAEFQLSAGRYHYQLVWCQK

O=[N+]([O-])c1ccccc1O[C@@H]1O[C@H](CO)[C@H](O)[C@H](O)[C@H]1O [ONPG]
specific activity (EcLac): Activity of the AiLac and EcLac (purchased from Sigma) was assessed by hydrolysis of ONPG

AiLac triple mutant (V648E, F702L, T742V) (enzyme)
stoichiometry N [1]: 4 | stoichiometry N [2]: 2 and 4

GH2 β-galactosidase from Alkalilactibacillus ikkensis (AiLac), wild type (enzyme)
Kd [3]: 300 nM | stoichiometry N [4]: 1.7 monomers | Kd [5]: 230 nM | stoichiometry N [5]: 2 | Kd [6]: 150 nM | stoichiometry N [7]: 2 | stoichiometry N [8]: 4 and 2
